Legend:
Test in all cases: SPR
Settings in all cases: both partners purified
[1] = target: T1, 3D7 merozoite surface protein 2 (MSP2) (Plasmodium falciparum 3D7, UniProt P50498)
T1 construct: also called 3D7 MSP2; 3D7-MSP2

[2] = target: T2, 3D7-MSP2(207-222) (WT) 16-residue peptide (Plasmodium falciparum 3D7)
T2 construct: source: synthetic peptide (Fmoc solid phase, in-house, reverse-phase purified)
T2 chain: SQKECTDGNKENCGAA

[3] = target: T3, 8-residue peptide 3D7-MSP2(215-222), minimal 4D11 epitope (Plasmodium falciparum 3D7)
T3 construct: source: synthetic peptide
T3 chain: NKENCGAA

T1 sequence (P50498 21-246): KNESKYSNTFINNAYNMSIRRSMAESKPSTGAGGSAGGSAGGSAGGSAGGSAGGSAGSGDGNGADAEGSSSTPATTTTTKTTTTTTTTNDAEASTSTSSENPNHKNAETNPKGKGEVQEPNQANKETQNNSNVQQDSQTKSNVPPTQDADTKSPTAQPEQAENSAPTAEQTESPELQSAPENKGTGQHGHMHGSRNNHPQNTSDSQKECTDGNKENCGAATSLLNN

B1: mouse monoclonal antibody 4D11 IgG (antibody, V domains shown)
VH: QVRLQQSGAELVKPGASVKLSCTASGFNIKDDYMHWVKQRPEQGLEWIGRIDPANGNTQYAPKFQDKATITADTSSNTAYLQLTSLTSEDTAVYYCARGGLLRWGQGTSVTVSS
VL: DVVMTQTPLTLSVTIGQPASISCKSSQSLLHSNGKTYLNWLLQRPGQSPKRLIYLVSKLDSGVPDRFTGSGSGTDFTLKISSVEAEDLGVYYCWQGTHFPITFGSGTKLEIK
With B1 the binding result [1] was “binds”, the Kd [2] was 900 nM and the Kd [3] was 240 nM.
